These results are taken from patent US20260167714A1 (COHERUS BIOSCIENCES, published 2026).

Experiment [1] addresses T1, human ILT4 expressed on cells (human, UniProt Q8N423 22-597).
T1 construct: whole, on cells; The same entry is used for endogenous ILT4 of human macrophages; also called CHO-S/ILT4 cells; ILT4-CHO cells
The experiment is described as follows: flow cytometry, blockade of PE-HLA-G tetramer binding to ILT4-CHO cells, Experiment 2. On the technique in general: Flow cytometry measures light scatter and fluorescence of single cells or particles in a stream.

Experiment [2] concerns the target T2, recombinant human ILT4 (LILRB2) (human, UniProt Q8N423 22-460).
T2 construct: Bought protein (Acro Biosystems or R&D Systems); also called ILTR4
The experiment is described as follows: SPR, high resolution kinetics, triplicate, LALA antibody.

The target in experiment [3] is T1, human ILT4 expressed on cells. The experiment in a line: flow cytometry, blockade of PE-HLA-G tetramer binding to ILT4-CHO cells, Experiment 1.
The target of experiment [4] is T2, recombinant human ILT4 (LILRB2). The experiment is described as follows: SPR, high resolution kinetics; reference Hz156. A general note: SPR reads the build-up and loss of mass on a sensor chip optically.
Experiment [5] concerns the target T1, human ILT4 expressed on cells. The experiment is described as follows: flow cytometry on ILT4-CHO cells, unlabelled mAb titrated; competitor AF647-Hz156.03-LALA. How it is done:
(§1) Competition binding assays were performed. […] Binding activities were measured by flow cytometry.
Anti-human ILT4 mAbs at various concentrations (0-15 μg/ml) were incubated with ILT4-CHO cells. Cells were washed and stained with AF647-Hz156.03-LALA. Cells were analyzed by flow cytometry.

Experiment [6] has as its target T2, recombinant human ILT4 (LILRB2). The experiment in a line: SPR, Biacore 8K, mAb captured on anti-human Fc, LILRB2 at 100 nM; legend: +++ binding (1-2 nM KD). How it is done:
(§2) SPR was used to determine the specificity of four humanized anti-ILT4 mAbs for binding to LILRB2 and to determine any cross-reactivity with nine other LILRA and LILRB family members. LILR proteins were purchased from Acro Biosystems or R&D Systems, with sequence provided below. The studies were performed with a Biacore 8K instrument using a CM4 sensor chip with a running buffer of HBS-P+, 100 μg/mL BSA. Anti-human Fc specific capture surfaces were prepared using standard amine coupling chemistry. MAb was captured to flow cell 2 with flow cell 1 serving as the reference flow cell. Each of the nine family members and LILRB2 were injected at 100 nM at 30 μL/min for 90 sec with 240 sec of dissociation. […] All sensorgrams were doubled-referenced during processing of the data.

The target is the same in experiment [7]. The experiment in a line: SPR, high resolution kinetics, triplicate, LALA antibody; 95% CI in parentheses.
Experiment [8] addresses T1, human ILT4 expressed on cells. The experiment in a line: flow based HLA-G blocking assay.
Experiment [9] shares this target. The experiment is described as follows: flow cytometry on ILT4-CHO cells, unlabelled mAb titrated; competitor AF647-Hz45.01-LALA. How it is done: as §1
Anti-human ILT4 mAbs at various concentrations (0-15 μg/ml) were incubated with ILT4-CHO cells. Cells were washed and stained with AF647-Hz45.01-LALA. Cells were analyzed by flow cytometry.

For experiment [10] the target is unchanged. The experiment is described as follows: flow cytometry, direct binding of AF647-labelled antibody (0-10 µg/ml) to ILT4-CHO cells. How it is done:
(§3) AF647-Hz45.01-LALA and AF647-Hz156.03-LALA at various concentrations (0-10 μg/ml) were incubated with ILT4-CHO cells and analyzed by flow cytometry.

Experiment [11] shares this target. The experiment is described as follows: flow cytometry, AF647-labelled mAb on ILT4-CHO cells. Here is the method: as §3
The target is the same in experiment [12]. The experiment in a line: flow cytometry, blockade of PE-HLA-G tetramer binding to ILT4-CHO cells, Experiment 3.
Experiment [13] shares this target. The experiment is described as follows: cell-based or functional assay.
For experiment [14] the target is unchanged. The experiment in a line: cell-based or functional assay. The source holds these as a separate data set.
The target of experiment [15] is T2, recombinant human ILT4 (LILRB2). The experiment in a line: SPR, Biacore 8K, mAb captured on anti-human Fc, LILRB2 at 100 nM; legend: ++++ tight binding (<100 pM KD). Here is the method: as §2
For experiment [16] the target is unchanged. The experiment in a line: SPR, Biacore T200, medium resolution; koff held at its limit of 4.27e-5 s^-1. The method, boiled down:
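Mouse, chimeric or humanized mAbs captured on anti-Fc surfaces (CM4 chip); ILT4 injected at 101 to 0.79 nM, 2-fold series, 90 s association, 1200 s dissociation. Run at 25° C in HBS-P+ pH 7.4 with 100 μg/ml BSA; double-referenced global 1:1 fit with mass-transport term, KD=koff/kon.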

T1 sequence (Q8N423 22-597): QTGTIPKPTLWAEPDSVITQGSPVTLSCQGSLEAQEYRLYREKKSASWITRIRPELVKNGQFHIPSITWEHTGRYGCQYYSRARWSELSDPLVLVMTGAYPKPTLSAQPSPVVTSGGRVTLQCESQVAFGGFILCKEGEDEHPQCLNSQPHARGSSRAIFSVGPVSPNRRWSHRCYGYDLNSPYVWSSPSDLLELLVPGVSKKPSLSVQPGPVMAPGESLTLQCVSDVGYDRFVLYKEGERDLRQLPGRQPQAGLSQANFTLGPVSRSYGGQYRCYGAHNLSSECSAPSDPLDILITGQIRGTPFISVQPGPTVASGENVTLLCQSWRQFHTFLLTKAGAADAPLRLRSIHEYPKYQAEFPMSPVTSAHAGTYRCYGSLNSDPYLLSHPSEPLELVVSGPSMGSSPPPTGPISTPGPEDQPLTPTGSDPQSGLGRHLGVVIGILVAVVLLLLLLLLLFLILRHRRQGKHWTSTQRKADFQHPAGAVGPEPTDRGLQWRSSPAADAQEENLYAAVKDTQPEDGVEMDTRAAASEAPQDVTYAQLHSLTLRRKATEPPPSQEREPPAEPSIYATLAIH
T2 sequence (Q8N423 other isoform, or with tags, fused parts or gaps limits assumed): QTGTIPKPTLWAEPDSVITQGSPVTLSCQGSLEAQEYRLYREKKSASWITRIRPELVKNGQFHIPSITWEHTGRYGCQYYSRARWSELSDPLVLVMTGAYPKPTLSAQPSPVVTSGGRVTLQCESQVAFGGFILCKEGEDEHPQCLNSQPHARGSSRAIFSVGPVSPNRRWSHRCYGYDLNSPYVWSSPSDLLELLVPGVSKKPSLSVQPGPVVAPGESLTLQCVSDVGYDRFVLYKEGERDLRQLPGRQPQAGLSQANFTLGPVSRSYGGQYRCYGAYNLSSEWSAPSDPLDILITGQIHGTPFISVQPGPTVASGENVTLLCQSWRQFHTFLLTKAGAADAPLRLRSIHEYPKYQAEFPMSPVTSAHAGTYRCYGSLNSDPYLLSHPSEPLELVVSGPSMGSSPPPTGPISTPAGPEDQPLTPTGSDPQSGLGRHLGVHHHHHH

B1: Hz45.01-LALA (antibody, human IgG1, kappa, L234A L235A, V domains shown)
VH: QVQLVQSGAEVKKPGASVKVSCKASGYTFTDYYMNWVRQAPGQRLEWIGDINPNNGGTSYNQKFKGRATITVDTSASTAYMELSSLRSEDTAVYYCARGGAELTGTYWYFDVWGQGTTVTVSS
VL: DIQMTQSPSSLSASVGDRVTITCRASENIYSNLAWYQQKPGKAPKVLVYGATNLADGVPSRFSGSGSGTEYTLTISSLQPEDFATYYCQHFWDSPFTFGGGTKVEIKR
notes: Humanized L45S4, human IgG1 L234A/L235A, kappa; also called Humanized 45_01; Hu IgG 45_01 LALA
As to B1, the IC50 – broadly, the concentration that inhibits the measured activity by half – in experiment [1] stood at 0.119 µg/mL; in [3], 0.198 µg/mL; in [5], 0.381 µg/mL; in experiment [8], 0.092 µg/mL; in experiment [9], 0.31 µg/mL; in [12], 0.185 µg/mL. For the same molecule, the Kd (commonly the equilibrium constant for the complex coming apart) in [2] stood at 0.154 nM. Also, the koff (as a rule, the rate constant with which the complex falls apart) in [2] worked out at 0.000531 s⁻¹. The “fold faster off-rate than Hz156” value in experiment [4] turned out to be 29 fold. Besides, in experiment [6], the KD (in general, the equilibrium constant for the complex coming apart) lay within 1 to 2 nM. Further, the on-rate (kon) (commonly a measure of how fast the partners come together) in experiment [7] stood at 3.45e+06 M⁻¹ s⁻¹. For the same molecule, the 50% effective concentration (EC50 (read off the curve)) (usually the concentration needed to bring the measured effect to its halfway point) in experiment [10] was roughly 0.2 µg/mL. Also, the EC50 – broadly, the midpoint of the concentration-response curve – in [11] was 162 µg/mL. In addition, the “EC50 value of TNFa production, donor 4” value in experiment [13] came to 0.0138 µg/mL. In addition, the “EC50 value of TNFa production, donor 5” value in [13] was 0.0185 µg/mL. Besides, the “EC50 value of IL-6 production, donor 4” value in experiment [14] was 0.00603 µg/mL. The “EC50 value of IL-6 production, donor 5” value in [14] turned out to be 0.0159 µg/mL.

B2: Hz156.03-LALA (antibody, human IgG1, kappa, L234A L235A, V domains shown)
VH: QVQLVQSGAEVKKPGSSVKVSCKASGYTFTDYYMNWVRQAPGQGLEWIARIYPGVYRTHYNEKFKDRVTLTADKSTSTAYMELSSLRSEDTAVYYCARSGYYGGTYEEDAMDYWGQGTTVTVSS
VL: DIQMTQSPSSLSASVGDRVTITCRASENIYSNLAWYQQKPGKAPKLLVYAATSLADGVPSRFSGSGSGTDYTLTISSLQPEDFATYYCQNFWDTPYTFGQGTKVEIKR
notes: Humanized L156S3, human IgG1 L234A/L235A, kappa
Take B2: the half-maximal inhibitory concentration (IC50) in [1] is 0.14 µg/mL; in [3], 0.19 µg/mL; in experiment [5], 0.422 µg/mL; in experiment [8], 0.212 µg/mL; in experiment [9], 0.245 µg/mL; in experiment [12], 0.233 µg/mL. The Kd in experiment [2] is 0.0057 nM; in [16] it was no more than 0.086 nM. Further, the koff in [2] was 1.83e-05 s⁻¹; in experiment [16], no more than 4.27e-05 s⁻¹. For the same molecule, the kon in experiment [7] came to 3.22e+06 M⁻¹ s⁻¹. In experiment [10], the 50% effective concentration (EC50 (read off the curve)) was roughly 0.2 µg/mL. Further, it took 248 µg/mL to reach a half-maximal effect in experiment [11] (EC50). Further, in experiment [13], the “EC50 value of TNFa production, donor 4” value is 0.00724 µg/mL. Also, in experiment [13], the “EC50 value of TNFa production, donor 5” value was determined as 0.0236 µg/mL. The dissociation constant KD in experiment [15] is less than 0.1 nM. For the same molecule, the “EC50 value of IL-6 production, donor 4” value in experiment [14] was determined as 0.0082 µg/mL. Besides, in [14], the “EC50 value of IL-6 production, donor 5” value came to 0.0213 µg/mL.
